Results published in publication PMC10412585, “High-throughput characterization of HLA-E-presented CD94/NKG2x ligands reveals peptides which modulate NK cell activation” (Nature Communications, 2023).
Values belong to the binder of their own block, whether it stands above or below them.

Experiments:
[1] = molecular target: … peptide HLA-E single chain trimer (soluble, biotinylated) (human, biotin (AviTag)); test: SPR; conditions: both partners purified
[2] = molecular target: WN peptide (…) HLA-E single chain trimer (soluble, biotinylated) (human, biotin (AviTag)); test: SPR; steady state, Biacore T200, biotinylated pMHC SCT immobilised at about 400 RU on a Series S SA chip, CD94/NKG2x as analyte 0.1-102.4 μM, 10 μL/min, 25 °C, HBS-EP+; reference HLA-DR401; approximate KD by Biacore software; conditions: both partners purified

- Kd [1]: ~8.2 µM
- Kd [2]: ~41.5 µM
B1: CD94/NKG2A single-chain fusion protein (human NKG2A ectodomain - GGSGGS - human CD94 ectodomain), produced in Hi5 cells for SPR (receptor)
chain: not shown
notes: also called CD94/NKG2x

- Kd [1]: ~21.4 µM
- Kd [2]: ~17.4 µM
B2: CD94/NKG2C single-chain fusion protein (human NKG2C ectodomain - GGSGGS - human CD94 ectodomain), produced in Hi5 cells for SPR (receptor)
chain: not shown
notes: also called CD94/NKG2x
